Molecular target: neutral avidin (UniProt P02701)
Assay: dynamic light scattering; each protein alone peaks near 10 nm

Chain of neutral avidin (P02701 25-152): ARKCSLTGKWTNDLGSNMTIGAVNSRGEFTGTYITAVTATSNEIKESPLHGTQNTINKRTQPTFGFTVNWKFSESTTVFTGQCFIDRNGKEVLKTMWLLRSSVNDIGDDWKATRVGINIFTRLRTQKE

In the case of “Nhead recombinant protein (AtaA59-325-GCN4pII-His)”, the particle size at the peak of the mixture (DLS) is reported as > 1000 nm.

Source: patent US20220259268A1
